Biological target: FimH Q133A (E. coli, UniProt P08191 22-300)
Test: co-expression with FimC in E. coli; data not shown

B1: FimC (wild type periplasmic chaperone of E. coli type 1 pili) (other)
chain: GVALGATRVIYPAGQKQVQLAVTNNDENSTYLIQSWVENADGVKDGRFIVTPPLFAMKGKKENTLRILDATNNQLPQDRESLFWMNVKAIPSMDKSKLTENTLQLAIISRIKLYYRPAKLALPPDQAAEKLRFRRSANSLTLINPTPYYLTVTELNAGTRVLENALVPPMGESTVKLPSDAGSNITYRTINDYGALTPKMTGVME
notes: also called FimC alone; wild type FimC
  binding result: binds
